Measured values from patent US20190142860A1, “NUCLEIC ACID BASED TIA-1 INHIBITORS” (Aquinnah Pharmaceuticals, Inc., priority 2015, published 2019).

Tests used:
[1] = target: Nucleolysin TIA-1 (endogenous mouse TIA1) (mouse) (UniProt P52912); test: TIA1 IP-MS, WT1 cortex
[2] = target: Nucleolysin TIA-1 (endogenous mouse TIA1) (mouse) (UniProt P52912); test: TIA1 IP-MS, WT2 cortex
[3] = target: Nucleolysin TIA-1 (endogenous mouse TIA1) (mouse) (UniProt P52912); test: TIA1 IP-MS, WT3 cortex
[4] = target: Nucleolysin TIA-1 (endogenous mouse TIA1) (mouse) (UniProt P52912); test: TIA1 IP-MS, tau KO 1 cortex
[5] = target: Nucleolysin TIA-1 (endogenous mouse TIA1) (mouse) (UniProt P52912); test: TIA1 IP-MS, tau KO 2 cortex
[6] = target: Nucleolysin TIA-1 (endogenous mouse TIA1) (mouse) (UniProt P52912); test: TIA1 IP-MS, tau KO 3 cortex

Chain of UniProt P52912 (P52912 whole entry): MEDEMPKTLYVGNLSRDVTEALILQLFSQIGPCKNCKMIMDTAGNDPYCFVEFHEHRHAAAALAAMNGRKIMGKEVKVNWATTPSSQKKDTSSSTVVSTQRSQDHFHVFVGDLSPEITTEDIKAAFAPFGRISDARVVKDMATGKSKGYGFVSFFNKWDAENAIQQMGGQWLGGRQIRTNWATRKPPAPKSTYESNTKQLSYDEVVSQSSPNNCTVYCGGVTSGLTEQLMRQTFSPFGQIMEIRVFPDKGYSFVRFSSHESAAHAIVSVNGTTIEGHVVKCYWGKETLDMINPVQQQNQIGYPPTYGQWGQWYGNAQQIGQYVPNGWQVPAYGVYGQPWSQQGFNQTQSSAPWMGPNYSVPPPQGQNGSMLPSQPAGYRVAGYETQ

Dihydropyrimidinase-related protein 3 (from UniProt Q62188 1-570)
total ion current (normalized to TIA1 = 1000) [1]: 0 | total ion current (normalized to TIA1 = 1000) [2]: 192 | total ion current (normalized to TIA1 = 1000) [3]: 14.7 | total ion current (normalized to TIA1 = 1000) [4]: 0 | total ion current (normalized to TIA1 = 1000) [5]: 96 | total ion current (normalized to TIA1 = 1000) [6]: 0

Dual specificity mitogen-activated protein kinase kinase 1 (from UniProt P31938 1-393)
total ion current (normalized to TIA1 = 1000) [1]: 0 | total ion current (normalized to TIA1 = 1000) [2]: 108 | total ion current (normalized to TIA1 = 1000) [3]: 83.7 | total ion current (normalized to TIA1 = 1000) [4]: 0 | total ion current (normalized to TIA1 = 1000) [5]: 67.8 | total ion current (normalized to TIA1 = 1000) [6]: 0

Eukaryotic initiation factor 4A-I (from UniProt P60843 2-406)
total ion current (normalized to TIA1 = 1000) [1]: 0 | total ion current (normalized to TIA1 = 1000) [2]: 150 | total ion current (normalized to TIA1 = 1000) [3]: 76.1 | total ion current (normalized to TIA1 = 1000) [4]: 0 | total ion current (normalized to TIA1 = 1000) [5]: 121 | total ion current (normalized to TIA1 = 1000) [6]: 0

Fructose-bisphosphate aldolase C (from UniProt P05063 2-363)
total ion current (normalized to TIA1 = 1000) [1]: 0 | total ion current (normalized to TIA1 = 1000) [2]: 69.5 | total ion current (normalized to TIA1 = 1000) [3]: 41.6 | total ion current (normalized to TIA1 = 1000) [4]: 0 | total ion current (normalized to TIA1 = 1000) [5]: 43.2 | total ion current (normalized to TIA1 = 1000) [6]: 0

Glutamate dehydrogenase 1, mitochondrial (from UniProt P26443 54-558)
total ion current (normalized to TIA1 = 1000) [1]: 0 | total ion current (normalized to TIA1 = 1000) [2]: 402 | total ion current (normalized to TIA1 = 1000) [3]: 162 | total ion current (normalized to TIA1 = 1000) [4]: 0 | total ion current (normalized to TIA1 = 1000) [5]: 365 | total ion current (normalized to TIA1 = 1000) [6]: 0

Glutathione S-transferase Mu 1 (from UniProt P10649 2-218)
total ion current (normalized to TIA1 = 1000) [1]: 0 | total ion current (normalized to TIA1 = 1000) [2]: 286 | total ion current (normalized to TIA1 = 1000) [3]: 57.4 | total ion current (normalized to TIA1 = 1000) [4]: 0 | total ion current (normalized to TIA1 = 1000) [5]: 91.1 | total ion current (normalized to TIA1 = 1000) [6]: 0

Glutathione S-transferase P 1 (from UniProt P19157 2-210)
total ion current (normalized to TIA1 = 1000) [1]: 31.6 | total ion current (normalized to TIA1 = 1000) [2]: 0 | total ion current (normalized to TIA1 = 1000) [3]: 0 | total ion current (normalized to TIA1 = 1000) [4]: 0 | total ion current (normalized to TIA1 = 1000) [5]: 0 | total ion current (normalized to TIA1 = 1000) [6]: 0

Glycerol-3-phosphate dehydrogenase, mitochondrial (from UniProt Q64521 43-727)
total ion current (normalized to TIA1 = 1000) [1]: 3.01 | total ion current (normalized to TIA1 = 1000) [2]: 0 | total ion current (normalized to TIA1 = 1000) [3]: 0 | total ion current (normalized to TIA1 = 1000) [4]: 18.8 | total ion current (normalized to TIA1 = 1000) [5]: 0 | total ion current (normalized to TIA1 = 1000) [6]: 0

Guanine deaminase (from UniProt Q9R111 1-454)
total ion current (normalized to TIA1 = 1000) [1]: 0 | total ion current (normalized to TIA1 = 1000) [2]: 0 | total ion current (normalized to TIA1 = 1000) [3]: 68.5 | total ion current (normalized to TIA1 = 1000) [4]: 0 | total ion current (normalized to TIA1 = 1000) [5]: 75.3 | total ion current (normalized to TIA1 = 1000) [6]: 0

Guanine nucleotide-binding protein G(z) subunit alpha (from UniProt O70443 2-355)
total ion current (normalized to TIA1 = 1000) [1]: 0 | total ion current (normalized to TIA1 = 1000) [2]: 59.4 | total ion current (normalized to TIA1 = 1000) [3]: 0 | total ion current (normalized to TIA1 = 1000) [4]: 0 | total ion current (normalized to TIA1 = 1000) [5]: 0 | total ion current (normalized to TIA1 = 1000) [6]: 0

Hemoglobin subunit alpha (from UniProt P01942 2-142)
total ion current (normalized to TIA1 = 1000) [1]: 0 | total ion current (normalized to TIA1 = 1000) [2]: 69.1 | total ion current (normalized to TIA1 = 1000) [3]: 0 | total ion current (normalized to TIA1 = 1000) [4]: 0 | total ion current (normalized to TIA1 = 1000) [5]: 0 | total ion current (normalized to TIA1 = 1000) [6]: 0

Heterogeneous nuclear ribonucleoprotein R (from UniProt Q8VHM5 2-632)
total ion current (normalized to TIA1 = 1000) [1]: 34.6 | total ion current (normalized to TIA1 = 1000) [2]: 374 | total ion current (normalized to TIA1 = 1000) [3]: 48.5 | total ion current (normalized to TIA1 = 1000) [4]: 26.7 | total ion current (normalized to TIA1 = 1000) [5]: 69.2 | total ion current (normalized to TIA1 = 1000) [6]: 0

Heterogeneous nuclear ribonucleoprotein U-like protein 2 (from UniProt Q00PI9 1-745)
total ion current (normalized to TIA1 = 1000) [1]: 11.1 | total ion current (normalized to TIA1 = 1000) [2]: 53.3 | total ion current (normalized to TIA1 = 1000) [3]: 0 | total ion current (normalized to TIA1 = 1000) [4]: 11.7 | total ion current (normalized to TIA1 = 1000) [5]: 17 | total ion current (normalized to TIA1 = 1000) [6]: 0

High mobility group protein B1 (from UniProt P63158 1-215)
total ion current (normalized to TIA1 = 1000) [1]: 6.6 | total ion current (normalized to TIA1 = 1000) [2]: 182 | total ion current (normalized to TIA1 = 1000) [3]: 38 | total ion current (normalized to TIA1 = 1000) [4]: 15.7 | total ion current (normalized to TIA1 = 1000) [5]: 60.8 | total ion current (normalized to TIA1 = 1000) [6]: 0

Histone H1.4 (from UniProt P43274 2-219)
total ion current (normalized to TIA1 = 1000) [1]: 0 | total ion current (normalized to TIA1 = 1000) [2]: 56 | total ion current (normalized to TIA1 = 1000) [3]: 78.1 | total ion current (normalized to TIA1 = 1000) [4]: 0 | total ion current (normalized to TIA1 = 1000) [5]: 55.4 | total ion current (normalized to TIA1 = 1000) [6]: 0

Hypoxanthine-guanine phosphoribosyltransferase (from UniProt P00493 1-218)
total ion current (normalized to TIA1 = 1000) [1]: 0 | total ion current (normalized to TIA1 = 1000) [2]: 21 | total ion current (normalized to TIA1 = 1000) [3]: 0 | total ion current (normalized to TIA1 = 1000) [4]: 0 | total ion current (normalized to TIA1 = 1000) [5]: 54.1 | total ion current (normalized to TIA1 = 1000) [6]: 0

Isocitrate dehydrogenase [NAD] subunit alpha, mitochondrial (from UniProt Q9D6R2 28-366)
total ion current (normalized to TIA1 = 1000) [1]: 0 | total ion current (normalized to TIA1 = 1000) [2]: 186 | total ion current (normalized to TIA1 = 1000) [3]: 138 | total ion current (normalized to TIA1 = 1000) [4]: 0 | total ion current (normalized to TIA1 = 1000) [5]: 155 | total ion current (normalized to TIA1 = 1000) [6]: 0

Isocitrate dehydrogenase [NAD] subunit, mitochondrial (from UniProt Q91VA7 34-384)
total ion current (normalized to TIA1 = 1000) [1]: 0 | total ion current (normalized to TIA1 = 1000) [2]: 110 | total ion current (normalized to TIA1 = 1000) [3]: 0 | total ion current (normalized to TIA1 = 1000) [4]: 0 | total ion current (normalized to TIA1 = 1000) [5]: 29.9 | total ion current (normalized to TIA1 = 1000) [6]: 0

Isoform 2 of 4-aminobutyrate aminotransferase, mitochondrial (from UniProt P61922 29-444)
total ion current (normalized to TIA1 = 1000) [1]: 0 | total ion current (normalized to TIA1 = 1000) [2]: 272 | total ion current (normalized to TIA1 = 1000) [3]: 79.4 | total ion current (normalized to TIA1 = 1000) [4]: 0 | total ion current (normalized to TIA1 = 1000) [5]: 112 | total ion current (normalized to TIA1 = 1000) [6]: 0

Isoform 2 of AP-2 complex subunit beta (from UniProt Q9DBG3 2-951)
total ion current (normalized to TIA1 = 1000) [1]: 0 | total ion current (normalized to TIA1 = 1000) [2]: 105 | total ion current (normalized to TIA1 = 1000) [3]: 67.8 | total ion current (normalized to TIA1 = 1000) [4]: 0 | total ion current (normalized to TIA1 = 1000) [5]: 102 | total ion current (normalized to TIA1 = 1000) [6]: 0

Isoform 2 of ATP-dependent 6-phosphofructokinase, muscle type (from UniProt P47857 1-850)
total ion current (normalized to TIA1 = 1000) [1]: 0 | total ion current (normalized to TIA1 = 1000) [2]: 62.9 | total ion current (normalized to TIA1 = 1000) [3]: 36.3 | total ion current (normalized to TIA1 = 1000) [4]: 0 | total ion current (normalized to TIA1 = 1000) [5]: 75.8 | total ion current (normalized to TIA1 = 1000) [6]: 0

Isoform 2 of Alpha-adducin (from UniProt Q9QYC0 1-632)
total ion current (normalized to TIA1 = 1000) [1]: 0 | total ion current (normalized to TIA1 = 1000) [2]: 121 | total ion current (normalized to TIA1 = 1000) [3]: 0 | total ion current (normalized to TIA1 = 1000) [4]: 0 | total ion current (normalized to TIA1 = 1000) [5]: 0 | total ion current (normalized to TIA1 = 1000) [6]: 0

Isoform 2 of Beta-adducin (from UniProt Q9QYB8 1-562)
total ion current (normalized to TIA1 = 1000) [1]: 0 | total ion current (normalized to TIA1 = 1000) [2]: 346 | total ion current (normalized to TIA1 = 1000) [3]: 0 | total ion current (normalized to TIA1 = 1000) [4]: 0 | total ion current (normalized to TIA1 = 1000) [5]: 32.6 | total ion current (normalized to TIA1 = 1000) [6]: 0

Isoform 2 of C-terminal-binding protein 1 (from UniProt O88712 1-430)
total ion current (normalized to TIA1 = 1000) [1]: 0 | total ion current (normalized to TIA1 = 1000) [2]: 65.7 | total ion current (normalized to TIA1 = 1000) [3]: 49.3 | total ion current (normalized to TIA1 = 1000) [4]: 0 | total ion current (normalized to TIA1 = 1000) [5]: 26.6 | total ion current (normalized to TIA1 = 1000) [6]: 0

Isoform 2 of Clathrin light chain B (from UniProt Q6IRU5 1-211)
total ion current (normalized to TIA1 = 1000) [1]: 3.53 | total ion current (normalized to TIA1 = 1000) [2]: 0 | total ion current (normalized to TIA1 = 1000) [3]: 0 | total ion current (normalized to TIA1 = 1000) [4]: 0 | total ion current (normalized to TIA1 = 1000) [5]: 0 | total ion current (normalized to TIA1 = 1000) [6]: 0

Isoform 2 of Cytosol aminopeptidase (from UniProt Q9CPY7 1-488)
total ion current (normalized to TIA1 = 1000) [1]: 0 | total ion current (normalized to TIA1 = 1000) [2]: 80.5 | total ion current (normalized to TIA1 = 1000) [3]: 0 | total ion current (normalized to TIA1 = 1000) [4]: 0 | total ion current (normalized to TIA1 = 1000) [5]: 28.4 | total ion current (normalized to TIA1 = 1000) [6]: 0

Isoform 2 of Focal adhesion kinase 1 (from UniProt P34152 2-1083)
total ion current (normalized to TIA1 = 1000) [1]: 0 | total ion current (normalized to TIA1 = 1000) [2]: 0 | total ion current (normalized to TIA1 = 1000) [3]: 84.3 | total ion current (normalized to TIA1 = 1000) [4]: 0 | total ion current (normalized to TIA1 = 1000) [5]: 130 | total ion current (normalized to TIA1 = 1000) [6]: 0

Isoform 2 of Gelsolin (from UniProt P13020 1-731)
total ion current (normalized to TIA1 = 1000) [1]: 0 | total ion current (normalized to TIA1 = 1000) [2]: 0 | total ion current (normalized to TIA1 = 1000) [3]: 0 | total ion current (normalized to TIA1 = 1000) [4]: 144 | total ion current (normalized to TIA1 = 1000) [5]: 0 | total ion current (normalized to TIA1 = 1000) [6]: 0
